From patent US6849610

System: HCMV intact particles AD169 (Human cytomegalovirus AD169)
Test: cell_activity
Settings: 2'-NH2 on all pyrimidines, plaque formation, 1e5 PFU/ml

With “GGGAGACAAGAAUAAACGGUCAAUUACGGUCACCUUACCCCUGGGUGUGCUCUUCCCGGUGGGUUCGACAUGAGGG [L13]” the IC50 (viral yield IC50 100±20 nM) was 125 nM.
Sequence “GGGAGACAAGAAUAAACGGUCAACUCGAGCCACCCCAUAACCCUCAAUACUCCAGGGAUUGGGUUCGACAUGAGGG [L19]” has an IC50 (viral yield IC50 35±7 nM) of 35 nM.
Work on “GGGAGACAAGAAUAAACGGUCAAUGUGGGUCGUGUUAAGCUUCGGGCUUCGCGCAAAUCUGGGUUCGACAUGAGGG [L66]” yielded an IC50 (viral yield IC50 18±4 nM) of 15 nM.
